Experimental data as given in patent publication US20140094415A1.

Molecular target: HIS-PDZ1-2 protein (PSD-95 PDZ1-2 tandem) (human) (UniProt P78352)
Experiment: fluorescence polarization, heterologous competition against AB143 probe

Substance: Tat-NR2B9c (peptide)
- Ki: 4.6 µM
